In patent US6841359 (GENERAL HOSPITAL, dated 2005):
Where no end group is shown, it is not given here. The star is where a group is joined. puromycin = COc1ccc(C[C@H](N*)C(=O)N[C@H]2[C@@H](O)[C@H](n3cnc4c(N(C)C)ncnc43)O[C@@H]2CO)cc1; DNA oligonucleotide = not defined here

Tests used:
[1] = target: T1, streptavidin (UniProt P22629 37-163, limits assumed); assay: streptavidin column-binding assay: 35S-labeled DNA-tagged peptide bound to immobilized streptavidin and eluted with biotin
T1 construct: The same protein was used free (EMSA, Biacore, SBIA) and immobilized on a matrix or plate; also called immobilized streptavidin; Ultralink immobilized streptavidin plus
T1 sequence (P22629 37-163 limits assumed): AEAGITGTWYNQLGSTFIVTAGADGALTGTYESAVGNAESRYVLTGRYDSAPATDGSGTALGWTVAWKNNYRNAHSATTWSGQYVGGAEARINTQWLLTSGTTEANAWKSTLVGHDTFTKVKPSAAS
Protocol: (§1) The resulting purified DNA-tagged peptides (DTP) were analyzed in a streptavidin column-binding assay, in which ~500 pM ^35S-labeled DTP were mixed with 50 µL of the streptavidin matrix in streptavidin-binding buffer, in a total volume of 300 µL, and incubated for 10 minutes at room temperature with agitation. Then, the contents were loaded onto a chromatography column. The column was drained and washed with 80 column volumes of streptavidin-binding buffer, and then eluted with three consecutive aliquots (3 column volumes each) of streptavidin-binding buffer plus 2 mM biotin over a 15 minute period. All fractions (flow-through, washes, elutions, and irreversibly bound counts) were analyzed by scintillation counting to determine the fraction of DTP that bound streptavidin and eluted with biotin (Table 1).

[2] = target: T1, streptavidin; assay: streptavidin column-binding assay, 35S DNA-tagged peptide on immobilized streptavidin, biotin elution
Protocol: as §1

[3] = target: T1, streptavidin; assay: streptavidin column-binding assay, M1 (HPQ to HGA) compared to C4
Protocol: as §1

[4] = target: T1, streptavidin; assay: EMSA, DNA-tagged peptide with free streptavidin; SD 0.91, n=8
Protocol: (§2) The dissociation constants of the selected peptides for streptavidin were measuring using an electrophoretic mobility shift assay (EMSA). In this assay, DTP's were incubated with varying amounts of pure streptavidin (Pierce Immunopure Streptavidin, Rockford, Ill.) in streptavidin-binding buffer plus 5% glycerol to increase the density of the solution so that it could collect at the bottom of the gel well. After incubating at room temperature for 20 minutes, the reactions mixtures were moved into the cold room, where they remained for 10 minutes before being carefully loaded onto a 10% polyacrylamide:bisacrylamide (37.5:1, National Diagnostics, Atlanta, Ga.) gel (thickness 0.7 mm, height 16 cm, width 18 cm) containing 2×TBE, 0.1% Triton X-100 and 5% glycerol. The gel, which had been pre-run for 30 minutes at 13 watts, and the running buffer were pre-cooled to 4° C. Then, the gel was run in the cold room at 13 watts, which increased the temperature of the gel to about 20° C. The gel was run for 45 to 120 minutes, depending on the mobility of the particular DTP. Then, the gel was fixed in 10% acetic acid and 10% methanol for 15 minutes, transferred to electrophoresis paper (Ahlstrom, Mt. Holly Springs, Pa.), dried, and analyzed using a PhosphorImager (Molecular Dynamics, Sunnyvale, Calif.).

[5] = target: T1, streptavidin; assay: EMSA, DNA-tagged peptide with free streptavidin; SD 22, n=6
Protocol: as §2

[6] = target: T1, streptavidin; assay: EMSA, DNA-tagged peptide with free streptavidin; SD 5.7, n=4
Protocol: as §2

Binder	% binding [1] [%]	% binding and eluting [2] [%]	further results
SB19 C-terminal truncation construct C1 (C-terminus joined through puromycin to a short DNA oligonucleotide (DNA-tagged peptide); 35S-methionine label) peptide: MDEKTTGWRGGHVVEGLAGELEQLRARLEHHPQGQREPLVQEVEDVDEGLVQDLHGVVAGLLDPVEKLLTDWFKKFKNVSMMSGGCKLG	87	–	–
SB8 (C-terminus joined through puromycin to a short DNA oligonucleotide (DNA-tagged peptide); 35S-methionine label, also called peptide SB8) peptide: MDEKTHCTIELNFSFTHWKLHHHPQGDALLDDGVRPHHPLADEGGGLDQGLGHRRGVVAERLARRDPEVLEGLVERHRGLVPRLRHGGERHAEPLVWRLPPS	–	27	–
SB3 (C-terminus joined through puromycin to a short DNA oligonucleotide (DNA-tagged peptide); 35S-methionine label, also called peptide SB3) peptide: MTRRPTASSSSCVRHLLLRQGEHGHQALEDRDKARHVRLVEGDVEVLGGLDRLARARHEALHPQAGLVHLPLHGGDLGGHLRLVLEAHPQGDRLGLAVHHH	–	20	–
MDEAHPQAGPVDQADARLVQQGALQHHPQGDRMMSGGCKLGTGY-{puromycin-DNA oligonucleotide} (reading uncertain; also: C-terminus joined through puromycin to a short DNA oligonucleotide (DNA-tagged peptide), 35S-methionine label, also called non-selected clone; control peptide) [Non-selected peptide with two HPQ motifs spaced by 19 residues]	–	0.16	–
MDGHVVEGLAGELEQLRARLEHHPQGQREPMMSGGCKLG (One member of the group m27; Assayed as a DNA-tagged peptide) [N1]	69	–	–
SB4 (C-terminus joined through puromycin to a short DNA oligonucleotide (DNA-tagged peptide); 35S-methionine label, also called peptide SB4) peptide: MDEKTHWGISTWRGEPLLHHPQAGRLPLDRRRARHRRILGAEPGGVDHGLRLELLDDHRPLVPDHHPQRGPLQRGDLPQVVPLVRLRHAHVLGLGLAAATIT	–	49	–
SB7 (C-terminus joined through puromycin to a short DNA oligonucleotide (DNA-tagged peptide); 35S-methionine label, also called peptide SB7) peptide: MDEKTHWFGTLNSFPTHWMSAVGNGKIDCSFNMNLSLNHWLSSGHPDGALDDQLHPQGDALVGRDDGVVQALRLEGQHQHRRLAQRRADRHRQLVWRLPPS	–	28	–
MDEKTTGWRGGHVVEGLAGELEQLRARLEHHGAGQREPMMSGGCKLG-{puromycin-DNA oligonucleotide} (reading uncertain; also: 35S-methionine label, also called construct M1) [SB19 point mutated peptide M1]	0.065	–	fold reduction of activity against construct C4 [3]: ~1000 fold
N2 (One member of the group m27; Assayed as a DNA-tagged peptide) peptide: MDEGLAGELEQLRARLEHHPQGQREPLVQEVEDVDEGLVQDLHGVVAGLLDPVEKLLTDWFKKFKNVSKDCKMTFYLEMYDWSGGCKLG	30	–	–
SB2 (C-terminus joined through puromycin to a short DNA oligonucleotide (DNA-tagged peptide); 35S-methionine label, also called peptide SB2; clone SB2) peptide: MDEKTHCFHPGDHLVRLVEELQALAEGLQRQGGRQPHRLPRRRPHHLQLLLDEAHPQAGPLRERAHQVDGRLLLQHHPQGDRLLQQPQDHPLELVWRLPPS	–	48	Kd [4]: 4.8 nM
SB6 (C-terminus joined through puromycin to a short DNA oligonucleotide (DNA-tagged peptide); 35S-methionine label, also called peptide SB6) peptide: MDEKTHWLNNFEELLARLDGLREGEDHPLVLRHHPQGDGLLDQPLGRHRALDGEVREGDRPLDQGGEEDLGALVDDDGEVLDGLVHVGVHVHDPLVCGCHHH	–	49	–
SB5 (C-terminus joined through puromycin to a short DNA oligonucleotide (DNA-tagged peptide); 35S-methionine label, also called peptide SB5) peptide: MDEKTHWVNVYHPQGDLLVRGHGHDVEALHDQGLHQLDLLVGPPPEVVRALRGEVLGGLRRLVPLDHPQGEALDQARQRPQHLLELHHRALPPALVWRLPPS	–	72	Kd [5]: 110 nM
SB1 (C-terminus joined through puromycin to a short DNA oligonucleotide (DNA-tagged peptide); 35S-methionine label, also called peptide SB1; clone SB1) peptide: MDEKTHCTISMNGAVPLVPHHHPQGDPLRLLHRPQPALLVRHPQGDLVALVEHHEGVDRGLVALPELHAEELGEPVGDLVQGPVEQVQGVVDALVWRLPPS	–	86	Kd [6]: 50 nM
SB19 C-terminal truncation construct C2 (C-terminus joined through puromycin to a short DNA oligonucleotide (DNA-tagged peptide); 35S-methionine label) peptide: MDEKTTGWRGGHVVEGLAGELEQLRARLEHHPQGQREPLVQEVEDVDEGLVQDLHGVVAGLLDPVEMMSGGCKLG	88	–	–
SB19 C-terminal truncation construct C3 (reading uncertain; also: 35S-methionine label) peptide: MDEKTTGWRGGHVVEGLAGELEQLRARLEHHPQGQREPLVQEVEDVDEGLVQMMSGGCKLG-{puromycin-DNA oligonucleotide}	89	–	–
